Experiment: label from the status in PepcDB records

Row | Sequence | protein production
1 | MQRLEVREPVPYPILVGEGVLKEVPPLAGPAALLFDRRVEGFAQEVAKALGVRHLLGLPGGEAAKSLEVYGKVLSWLAEKGLPRNATLLVVGGGTLTDLGGFVAATYLRGVAYLAFPTTTLAIVDASVGGKTGINLPEGKNLVGAFHFPQGVYAELRALKTLPLPTFKEGLVEAFKHGLIAGDEALLKVEDLTPQSPRLEAFLARAVAVKVRVTEEDPLEKGKRRLLNLGHTLGHALEAQTRHALPHGMAVAYGLLYAALLGRALGGEDLLPPVRRLLLWLSPPPLPPLAFEDLLPYLLRDKKKVSESLHWVVPLAPGRLVVRPLPEGLLREAFAAWREELKGLGLLR | not failed
2 | MQRLNLGCGQYPKAGFLNVDVDPLAKADVFHDLSSFPYPFEDARFDLVEMDHVLEHLPSPRDAMREIWRILKPGGTLRLRVPHFSRGFSHYDHKCGFDVTFPLYFDPTFPGGYTGIPFEHVQTRLVWFAQPWLKRQVLGNFAFNVGKMLGMVFDALGNIAPLATSRLFCFWVGGYEEITFELRRPTNTLEHHHHHH | not failed
3 | MQRLQASLERRQVGIYFAAMALGAVLAWHRPGLQVGEATLNLMLAGMLLATFMQVPLAGWRATLPGMRFLGVLLSVNFVLVPALVWGLAALLPADPMIRLAVLLVLLAPCIDYVVTFAQLGRADARALLAATPVLLCGQMLLLPLYLNVMLGSDAAALIRPGPFVQAFVWLIALPLAAATGVQWAAARSAAWRGAASVVGLLPVPATALVLATIVAAVAPRMALAGEAVSRVVPVYLLFAVIAPAAGWLAARRARLAAPQARAVAFSAGTRNSLVVLPLALAVPGGVPLLPALIVAQTLVELCAELLYVRVFGRAGKDRAGEG | failed
4 | MQRTAVLPYVQLLKPITWFAPMWAFGCGLISSGLPVWDRWPVIALGVLLCGPLVCGTSQAVNDWFDRHVDAINEPDRPIPSGRIPGRVGLYIAIGWTVLSLAVAWVLGPWVFGAAIFGLALAWAYSAPPFRLKGNGWWGNSAVGLCYEGLPWFTGAAVIAGALPDTRIVLLAVLYSIGAHGIMTLNDFKAVEGDIRMGVRSLPVQLGVAPAARLACAVMAVPQMVVIGLVASWDRPYHAGAVGLLLLAQFVLMARLLKRPRELAPWYNATGTTLYVIGMMVSAFALAPLIGAVELAPLIGAAP | failed
5 | MQSDKVLNLPAGYFGIVLGTIGMGFAWRYASQVWQVSHWLGDGLVILAMIIWGLLTSAFIARLIRFPHSVLAEVRHPVLSSFVSLFPATTMLVAIGFVPWFRPLAVCLFSFGVVVQLAYAAWQTAGLWRGSHPEEATTPGLYLPTVANNFISAMACGALGYTDAGLVFLGAGVFSWLSLEPVILQRLRSSGELPTALRTSLGIQLAPALVACSAWLSVNGGEGDTLAKMLFGYGLLQLLFMLRLMPWYLSQPFNASFWSFSFGVSALATTGLHLGSGSDNGFFHTLAVPLFIFTNFIIAILLIRTFALLMQGKLLVRTERAVLMKAEDKE | not failed
6 | MQSGDGRRGRLRIFFGFAAGVGKTYGMLTEAHELLMMGKHVVVGYIEPHDRPDTNRLLEGLPQIPPKNIFYKQMVLTEPDIDQIIQQKPEIVLIDELAHSNAEGSRNRKRYQDIDELLNAGIDVFTTVNVQHIESLNDIVEEVTGIEVKETVPDTFLRQATIRVIDVEPDELIERLEQGKIYANENAKRALKNFFIPQKLDQLRGLAIQRASDHINRISGKTIGIQSKLLTVVNDAFPKMTEKCIRWTARLAQGLVVDWTVIQVRTQENTPTNIPLADKLGAEVISIEEDDSFETIVEFAKMTGVTDIIMGKNLRQPWYEKIFIEAFDDRLLKRLKDTELHLIPFNEEKRSLFFKTRKVIEGGGKDLVIAIGGVFLATVVTELMQYIHVGDQNLMLIYISFVLLVARTTSGYFWSSLSSILSVLSFNWFFVEPLYSLTVYKQGYPFTLLLMLVVALMSSNLMIRLKKQADTSMKKEHQMEILYELNKRYVLVESRKQILDISATYLSRLLEREVIIFDRQVKTESVHCINEKKSILNNEDEAAVAFWAAKNQKEAGNGTDTLNGAKGFYLPIAAGRKTLAVLGIERNADLDLENDQLNYLKLVLTQIAVILEQTELKDEKEQVELENEREKVRSNLLRAVSHDLRTPLTVISGIAETLGIGNDLKEETQRKLLKDIQEESQWLIRMVENLLSITRINMDTMKVNKTAEPVEEVIEAVYKHLRKVYPDGQVDIHLPEEVIFIQADPILIEQALFNLIENAFRHGENDLPVKLNVYQEKEQTVFEIENHGEIPLKQFQKIQSNLSGTNEVPVDSKNGLGIGLSIVKTIVHAHNGKMEMTIGRGKTLVRIYLK | failed
7 | MQSKGATGSKSEQRTGLLNGVAAYGMWGLVPLYWPLLKPAGAVEILAHRMVWSLALVAVALLVMRRWAWAGELLRQPRKLALVTVAAAVITVNWGVYIWAVNAGHVVEASLGYFINPLVTIALGVLILKERMRPWQWAAVGVAFTAVVVLTVGYGQPPWISLCLAFSFGTYGLVKKKVNLGGIESLAAETAIQFLPALAYLLWLTASGGSTFGTQGGAGHAALLASTGVVTAIPLVCFGAAAIRVPLSTLGLLQYLAPVFQFLLGILYFHEAMPPERWAGFALVWLALSLLTWDALRAAHRASRALRTAPSRIVADEQITPVYEHP | failed
8 | MQSSSSLAPVAPIIFLAIAIAAINWIDLARGKNRTSVAYPLSLLTTLVLTAWFGIDAAGGETHYAFANLVVIDPMANVLAAFCSLGMLLTLIYTRSYLAERDMFAGEFYMLALFTLGGQIVMITGNNFLTLYLGLELLSLSSYALVALRRDSRVTSESAIKYFVLGALASGFLLYGMSMMYGATGSLNLGEVFRVVESGRVNTTMLAFGVVFIVAGVAFKLGAAPFHMWIPDIYQGSPTAVTLLIAAGPKVAAFALIIRLLVEGLLPLATDWQVMLVILSIASLVIGNLTAIVQTNLKRMLAYSTISHMGFVLLGMLSGVVANKADGAVNAYSSSMFYSITYMLTTLGTFGLILVRTRKGFEAETLDDLKGMSRRHPWFAFLMLVMMFSMAGIPPTVGFYAKLSVLQAVVSAGMSWLAVLAVVFSLIGAFYYLRIVKLMYFDAPVGEEPLEASTGLRSVLSLNGLAVILLGLFPAGLMDLCFQAIRATLAS | failed
9 | MQSTAFSLYIIDTLHDSLIFATILMSALLPKIILGPLGGVFVDWFDRKKFLVVIDLISGVLLLISALVYGNNLSLPIIYFICISLGIMNSVDEPLVVALIPSLVEKEKLVTANSINMFSTALGNIIGPILGAVVYSSFGIDTILYINASSFIIGAILEFMINIENKKKISQSKTIFNFLEDFKAGLIYIVRNRIILVIVVSIFFQNFFFNGATTVGVPFLAKQILKVSNAEFAILETTLIVGSIFGLLVASNLIKDKPLASLFPKLLFVISVCFLMIGLICIFLLKKQLMAYVFIAIIYICLGMLSMNVNVLFQTEMQKIVDESMFGRVSSLILSLIMSSIPLGQLVYGYLFKVVSPSIPFLVTFIAICCVSTLFSLSLRNSEL | failed
10 | MQSTIVIVNLLGAVALLLFGLAQVKDGVTRAFGMKLRSVLATGTQNGPRSFFSGFFATVALQSSTATALTVASFAERDLIKPRMAQVVLLGANVGTAVTAWIVAAGVEWLSPLLILAGIILKKGSSNARQGGGTAVIGIGLMLLSLHLLSGATEPMRASPALGVFIGLLDGAWPVALIFSAVLAFVSSSSLAVVVLILSLTATGTLSTGLIIVLILGANLGGAIPPVIATLSGPASARRITIGNLVVRTIGCLIAMPLASYGATYLQQLPLSPAKLPVDAHLIFNLILATLAWPFSGLISDLMAKLVPGDPKAEDGPNFLDQQALDVPVVALANATREVLSVGDSIERMLIRAENAFKHNDLAPLQEVALLEKKVDRRQQEVKVYLSQLGRKGLTDEEARRSIAIIDYAINLEHIGDIIEKGICEQIRKKVLNSFKFSDDGYEELKTLFDMTIENLRAAQSILVTGDFELARRLMESKVDIRRLEKQSSNRHLERLRDGLAESMQTSSLHLDMLRDLKRINAHIVTVAHPILDESGVLIESRLRYAEPRA | failed
11 | MQTASRAHADSRHGLFLILFSAMLWGTVGITTKALYGLADTTPLSIGFFRLALAVPVLVAACRLATGPAMFRVARRDLGTMIVVGAMTALYQVCYFAAIRQIGVAAATLVTLCTAPVIVALLSAILTGERPSGRVLLSLACALAGTALLVGLRPLAGEGGNIPLGIAQALGSAFSYASVTVASRTLAGRYHPLQPVAIGFAAGALFLLPTALADGLVLTYPAAGWVLLLYLGVVPTALAYALFLAGMRTTTATAASICTLLEPLVSTVLAWLIFGERLGPLGAVGAVLLFGAIGLLARPVRRRQSSAA | failed
12 | MQTFVLATNSETVSQTLCSYLEGVLDLEDSVYAVNSQPGGDRTPPDAVADGKAALEVVSDRLGDQVSVETYQIIRGNSPADDIFDIAAEVDADELVIGVRKRSQTDRLIFGSVAQDIMRQSDYPMRVVPRD | failed
13 | MQTIIRVEKLAKTFNQHQALHAVDLNIHHGEMVALLGPSGSGKSTLLRHLSGLITGDKSVGSHIELLGRTVQREGRLARDIRKSRAHTGYIFQQFNLVNRLSVLENVLIGALGSTPFWRTCFSWFTGEQKQRALQALTRVGMVHFAHQRVSTLSGGQQQRVAIARALMQQAKVILADEPIASLDPESARIVMDTLRDINQNDGITVVVTLHQVDYALRYCERIVALRQGHVFYDGSSQQFDNERFDHLYRSINRVEENAKAA | failed
14 | MQTLLPLLARGAVLSPFKRPRPDAAFPHSRLVLSGVRIDLARLAAYERACGFPTGADALPLTYPHVLGFPLAMRIMASRAFPLPLLGLVHTSIEVTRLREPAATGEYELAVHVEGLTPHRRGTEATVVTGARVDGSLVWESRSTYLARHRRATDARTPADARTATDARTPADARTATDARTAADARTAAPVPSAEPKPLPVVAEWRLAADVGRRYAAVSGDRNPIHLHPLTARLFGFPRAIAHGMWTVARCLAEQPADASVQLRAEFKSPVLLPGTVTYAADGGRFELRGGERVHLTGELREYRANSA | failed
15 | MQTQFQFINDCLIENQPLWRFEPFQSSIQPSLPWQETHPQLCQWLESLSPSQIETLKADPDLALDEISVFLPDLPSLLRHTQLESMALDGLALERGLDSGIPGRKLEQITAMGEAAIQSHQGEEWLEWCSGKGYLGRILTTQTNQPVTSFEYQQALCDSGQQAANEHHWKMTFIQGDAFDPQTKAVFKPTQHAVALHACGDLHVRLMEYGSEAGIAAMTISPCCYHLIQSETYQALSQSVRASELILSKHELRIPLQQTVTGGERVRRHRQQEMVFRLGFDLLTREILGVDEYQPVPSIRKSQLSDGFEALCLWVAKEKGIEINQAIDFAEFEKRAIKRFWHMERMSLVQLVFQRPLEIWLALDKVLYLEERGYRVRLAEFCPKSVTPRNILICAYKN | failed
16 | MQTQVLFEHPLNEKMRTWLRIEFLIQQLTVNLPIVDHAGALHFFRNVSELLDVFERGEVRTELLKELDRQQRKLQTWIGVPGVDQSRIEALIQQLKAAGSVLISAPRIGQFLREDRLIALVRQRLSIPGGCCSFDLPTLHIWLHLPQAQRDCQVETWIASLNPLTQALTMVLDLIRQSAPFRKQTSLNGFYQDNGGDADLLRLNLSLDSQLYPQISGHKSRFAIRFMPLDTENGQVPERLDFELACC | not failed
17 | MQTWQQLYSPLGSLGLSALAAVIPIVFFFLALAVFRLKGHVAGSITLALSILVAIFAFQMPADMALAAAGYGFAYGLWPIAWIIVAAVFLYKLTVKSGQFEIIRSSVLSITDDQRLQVLLIGFCFGAFLEGAAGFGAPVAITAALLVGLGFNPLYAAGLCLIANTAPVAFGALGIPIIVAGQVTGIDAFKIGAMTGRQLPLLSLFVPFWLVFMMDGMRGVKETWPAALVAGLSFAVTQYFTSNFIGPELPDITSALASLISLTLFLKIWQPKRTAGAQIAGATSSAAITASAGGFGQPRQTQASPYSLGQIFKAWSPFLILTVLVTIWTLKPFKAMFAAGGSMYGWVFNFAIPHLDQLVIKMAPIVTTPTAIPAVFKLDPISATGTAIFFSALISMLLLKIDFKTGLTTLKETFYELRWPILSIGMVLAFAFVTNYSGMSSTMALVLAATGAAFPFFSPFLGWLGVFLTGSDTSSNALFSSLQATTAHQIGVNDTLLVAANTSGGVTGKMISPQSIAVACAATGLVGKESDLFRFTLKHSLFFATIVGLITLAQAYWFTGMLVH | failed

Reference: a protein production outcome set (Wang et al. 2014)
